Test results as given in publication PMC11507401, “Functional and Physiological Characterization of Tyrosine Decarboxylases from Olea europaea L. Involved in the Synthesis of the Main Phenolics in Olive Fruit and Virgin Olive Oil” (International Journal of Molecular Sciences, 2024).

B1: OeTDC1 (Olea europaea subsp. europaea) (protein)
chain: MGSLQNQKPENGFTGAPIKPLDPEEFRRQGHMVIDFLADYYKNVEKYPVRSQVQPGYLRKRLPESAPHEPEPIEEILQDVQKDIVPGITHWQSPNYYAYFPSSGSIAGFLGEMLSTGFNVVGFNWMSSPAATELESIVMDWLGKMLNLPSSFLFSGGGGGVLQGTTCEGILCTLVAARDQMLNKIGRDNIGKLVVYGSDQTHSALQKAAQIAGIEPKNFRAVQTTKATAFGLTAEALRSTIESDVEAGLVPLFLCPTVGTTSSTAVDPIGPLCEVAKEYGMWVHVDAAYAGSACILPEYRHFLDGVENADSFSFNAHKWFLTTLDCCCLWVKNPSALVKALSTYPEYLRNKATDSNQVVDYKDWQITLSRRFRSLKLWLVLRSYGVANLRKFLRSHIQMAKNFEGLIGMDKRFEVVVPRNFATVCFRISPIEIGKNHIVSKEEVTNEFNSKLLESINEAGKIYVTHAVIGGVYVIRFCVGTTLTENRHVILAWKTIQEHANALLSMS

Legend:
OeTDC2 = target: T1, OeTDC2 (Olea europaea, UniProt A0A8S0SA91); experiment: activity of enzyme extracted and purified with or without PLP; assay type: biochemical; conditions: PLP in or omitted from lysis and purification buffers; tightly bound cofactor
T1 construct: gene OLEA9_A073377

OeTDC1 = target: T2, OeTDC1 (Olea europaea, UniProt A0AB74UCV8); experiment: as above; assay type: biochemical; conditions: PLP in or omitted from lysis and purification buffers; tightly bound cofactor
T2 construct: gene TDC1

purified protein [1] = substrate: N[C@@H](Cc1ccc(O)c(O)c1)C(=O)O; experiment: purified protein; assay type: biochemical, Olea europaea; conditions: 50 mM Tris-HCl pH 8.0, 40 °C, 200 µM PLP, 15 min
purified protein [2] = substrate: N[C@@H](Cc1ccc(O)cc1)C(=O)O; experiment: purified protein; assay type: biochemical, Olea europaea; conditions: 50 mM Tris-HCl pH 8.0, 40 °C, 200 µM PLP, 15 min

T1 sequence (A0A8S0SA91 entry or part of it): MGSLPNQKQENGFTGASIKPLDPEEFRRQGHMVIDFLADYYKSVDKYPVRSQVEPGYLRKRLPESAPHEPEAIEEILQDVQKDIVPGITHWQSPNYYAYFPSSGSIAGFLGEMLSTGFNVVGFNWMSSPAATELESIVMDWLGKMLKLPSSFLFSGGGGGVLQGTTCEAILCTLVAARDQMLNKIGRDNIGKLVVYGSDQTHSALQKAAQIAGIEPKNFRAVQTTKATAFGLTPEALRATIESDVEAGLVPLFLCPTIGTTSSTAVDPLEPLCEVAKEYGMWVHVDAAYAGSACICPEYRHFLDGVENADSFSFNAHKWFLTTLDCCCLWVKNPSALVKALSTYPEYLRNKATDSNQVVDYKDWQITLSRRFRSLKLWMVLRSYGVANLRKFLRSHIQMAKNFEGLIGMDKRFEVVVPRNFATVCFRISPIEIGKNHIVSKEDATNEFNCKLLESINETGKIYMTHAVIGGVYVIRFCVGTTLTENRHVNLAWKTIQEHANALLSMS

Molecule | activity of enzyme extracted and purified with or without PLP (OeTDC2) | activity of enzyme extracted and purified with or without PLP (OeTDC1) | Km (purified protein [1]) | Vmax (purified protein [1]) | kcat (purified protein [1]) | kcat/Km (purified protein [1]) | Km (purified protein [2]) | Vmax (purified protein [2]) | kcat (purified protein [2]) | kcat/Km (purified protein [2])
Cc1ncc(COP(=O)(O)O)c(C=O)c1O [PLP] | it was observed that PLP binds tightly to the olive TDC proteins | it was observed that PLP binds tightly to the olive TDC proteins | – | – | – | – | – | – | – | –
B1 | – | – | 340 µM | 4.08 µmol/min/mg | 3.82 s⁻¹ | 11300 M⁻¹ s⁻¹ | 1900 µM | 12.4 µmol/min/mg | 12.8 s⁻¹ | 6720 M⁻¹ s⁻¹
